Earlier results in patent publication US5223421A, “Identification of methionine Nα-acetyltransferase” (The General Hospital Corporation, priority 1990, dated 1993).

Molecular target: T1, yeast methionine acetyltransferase (M-N^α AT) (Saccharomyces cerevisiae, UniProt Q06504)
T1 construct: a crude yeast homogenate from the aaa1 mutant strain; endogenous in cells; host or cells: Saccharomyces cerevisiae strain T3A-a (aaa1), crude lysate
T1 sequence (Q06504 1-195): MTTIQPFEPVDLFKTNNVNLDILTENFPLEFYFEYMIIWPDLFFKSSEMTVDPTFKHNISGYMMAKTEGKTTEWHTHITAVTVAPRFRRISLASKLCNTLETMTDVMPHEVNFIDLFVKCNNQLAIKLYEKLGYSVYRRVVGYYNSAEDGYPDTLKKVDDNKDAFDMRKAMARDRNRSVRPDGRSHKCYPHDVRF
T1 sequence (Q12387 2-796 partner limits assumed): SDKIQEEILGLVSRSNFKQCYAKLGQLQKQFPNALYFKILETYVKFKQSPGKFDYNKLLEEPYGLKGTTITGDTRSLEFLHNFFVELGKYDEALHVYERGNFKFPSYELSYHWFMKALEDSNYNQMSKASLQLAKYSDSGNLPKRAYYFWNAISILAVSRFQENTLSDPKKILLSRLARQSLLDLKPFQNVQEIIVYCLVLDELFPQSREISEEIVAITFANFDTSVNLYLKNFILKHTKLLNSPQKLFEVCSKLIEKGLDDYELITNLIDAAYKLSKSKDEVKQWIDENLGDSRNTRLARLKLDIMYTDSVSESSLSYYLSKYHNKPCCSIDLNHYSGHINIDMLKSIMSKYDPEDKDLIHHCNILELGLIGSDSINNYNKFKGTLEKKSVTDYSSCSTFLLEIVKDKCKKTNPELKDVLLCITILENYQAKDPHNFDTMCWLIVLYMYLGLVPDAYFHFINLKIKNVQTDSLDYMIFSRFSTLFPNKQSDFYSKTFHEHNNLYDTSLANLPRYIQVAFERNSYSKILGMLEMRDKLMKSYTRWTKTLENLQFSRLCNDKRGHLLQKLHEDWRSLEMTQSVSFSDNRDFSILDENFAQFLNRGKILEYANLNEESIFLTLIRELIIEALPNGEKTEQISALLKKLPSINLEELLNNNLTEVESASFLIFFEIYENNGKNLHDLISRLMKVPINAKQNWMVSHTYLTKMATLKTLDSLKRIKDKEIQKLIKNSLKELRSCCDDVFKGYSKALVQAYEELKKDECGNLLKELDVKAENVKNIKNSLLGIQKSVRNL
Settings: Lee et al., J. Biol. Chem. 265:3603-3606 (1990); cited from earlier work

Substance: 24 residue synthetic peptide mimicking the NH2 terminus of yeast actin: 24 residue synthetic peptide mimicking the NH2 terminus of yeast actin (MDSEVAALVIDNGSGMCKAGFAGD; UniProt P60010 1-24, looked up, fragment)
- N^α -acetylation by yeast M-N^α AT: will acetylate
